Assay results reported in paper PMC12041315, “UHRF1-mediated epigenetic reprogramming regulates glycolysis to promote progression of B-cell acute lymphoblastic leukemia” (Cell Death & Disease, 2025).

Tests used:
UHRF1 = biological target: T1, UHRF1 (Homo sapiens, UniProt Q96T88); experiment: microscale thermophoresis; assay type: binding; details: RED-NHS labelled protein, 1 µM; room temperature, 30 min
T1 sequence (Q96T88 1-793): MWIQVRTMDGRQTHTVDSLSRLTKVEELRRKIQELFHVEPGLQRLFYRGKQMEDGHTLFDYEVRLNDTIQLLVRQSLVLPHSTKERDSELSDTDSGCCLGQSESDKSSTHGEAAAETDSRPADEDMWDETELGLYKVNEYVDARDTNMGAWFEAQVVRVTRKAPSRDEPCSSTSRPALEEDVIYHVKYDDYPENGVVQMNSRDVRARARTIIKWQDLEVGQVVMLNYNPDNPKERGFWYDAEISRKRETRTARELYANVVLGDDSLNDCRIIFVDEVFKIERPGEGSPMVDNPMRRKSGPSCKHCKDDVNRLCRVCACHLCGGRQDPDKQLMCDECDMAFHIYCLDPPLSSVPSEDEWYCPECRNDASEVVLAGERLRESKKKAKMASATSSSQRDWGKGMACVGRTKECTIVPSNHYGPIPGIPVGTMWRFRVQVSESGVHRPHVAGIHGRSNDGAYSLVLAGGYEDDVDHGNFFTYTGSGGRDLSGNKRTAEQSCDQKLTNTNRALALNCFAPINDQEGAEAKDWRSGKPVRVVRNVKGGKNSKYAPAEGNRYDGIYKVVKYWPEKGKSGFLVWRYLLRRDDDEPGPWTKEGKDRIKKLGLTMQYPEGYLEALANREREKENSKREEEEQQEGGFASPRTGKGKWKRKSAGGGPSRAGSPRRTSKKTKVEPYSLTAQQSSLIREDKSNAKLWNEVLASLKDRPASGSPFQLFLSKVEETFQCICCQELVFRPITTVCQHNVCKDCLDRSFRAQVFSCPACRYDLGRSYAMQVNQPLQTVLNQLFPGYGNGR

[1] = biological target: T2, biotinylated SFRP5 protein (secreted frizzled-related protein 5) (UniProt Q5T4F7 30-317, biotin (biotinylated; site not stated)); experiment: BLI
T2 chain: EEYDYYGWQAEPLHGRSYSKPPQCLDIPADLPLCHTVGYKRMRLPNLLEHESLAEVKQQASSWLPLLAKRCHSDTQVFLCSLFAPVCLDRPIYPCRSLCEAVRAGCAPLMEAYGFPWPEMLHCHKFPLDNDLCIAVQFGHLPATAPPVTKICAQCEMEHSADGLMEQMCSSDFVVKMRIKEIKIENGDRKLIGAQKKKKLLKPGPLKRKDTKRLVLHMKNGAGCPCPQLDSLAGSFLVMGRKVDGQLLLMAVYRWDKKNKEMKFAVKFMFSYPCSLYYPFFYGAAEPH

WNT5A protein = biological target: T3, WNT5A protein (UniProt P41221 62-380); experiment: BLI; biotinylated SFRP5 immobilised on the biosensor (ForteBio Octet RED 96e); WNT5A in Assay Buffer at 0.156 to 5 uM; global fitting model; details: both partners purified
T3 construct: WNT5A protein
T3 sequence (looked up): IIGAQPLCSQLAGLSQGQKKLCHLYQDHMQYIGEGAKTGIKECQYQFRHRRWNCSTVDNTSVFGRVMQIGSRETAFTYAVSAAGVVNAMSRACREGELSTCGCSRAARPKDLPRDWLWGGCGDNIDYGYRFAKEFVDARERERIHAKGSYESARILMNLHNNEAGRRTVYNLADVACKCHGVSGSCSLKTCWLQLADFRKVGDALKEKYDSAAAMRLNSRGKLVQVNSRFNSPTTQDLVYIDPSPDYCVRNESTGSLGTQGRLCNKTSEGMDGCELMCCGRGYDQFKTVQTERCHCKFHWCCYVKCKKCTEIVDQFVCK

Cc1nc(Nc2ncc(C(=O)Nc3cc(NC(=O)c4cccc(C(F)(F)F)c4)ccc3C)s2)cc(N2CCN(CCO)CC2)n1 [UM164]
Kd (UHRF1): 10.2 µM

B1: WNT5A protein (natural protein)
chain: IIGAQPLCSQLAGLSQGQKKLCHLYQDHMQYIGEGAKTGIKECQYQFRHRRWNCSTVDNTSVFGRVMQIGSRETAFTYAVSAAGVVNAMSRACREGELSTCGCSRAARPKDLPRDWLWGGCGDNIDYGYRFAKEFVDARERERIHAKGSYESARILMNLHNNEAGRRTVYNLADVACKCHGVSGSCSLKTCWLQLADFRKVGDALKEKYDSAAAMRLNSRGKLVQVNSRFNSPTTQDLVYIDPSPDYCVRNESTGSLGTQGRLCNKTSEGMDGCELMCCGRGYDQFKTVQTERCHCKFHWCCYVKCKKCTEIVDQFVCK
Kd [1]: 0.0203 µM

B2: biotinylated SFRP5 protein (secreted frizzled-related protein 5) (natural protein, UniProt Q5T4F7 30-317, looked up)
chain: EEYDYYGWQAEPLHGRSYSKPPQCLDIPADLPLCHTVGYKRMRLPNLLEHESLAEVKQQASSWLPLLAKRCHSDTQVFLCSLFAPVCLDRPIYPCRSLCEAVRAGCAPLMEAYGFPWPEMLHCHKFPLDNDLCIAVQFGHLPATAPPVTKICAQCEMEHSADGLMEQMCSSDFVVKMRIKEIKIENGDRKLIGAQKKKKLLKPGPLKRKDTKRLVLHMKNGAGCPCPQLDSLAGSFLVMGRKVDGQLLLMAVYRWDKKNKEMKFAVKFMFSYPCSLYYPFFYGAAEPH
modifications: biotin (biotinylated; site not stated)
notes: secreted frizzled-related protein 5 (SFRP5)
Kd (WNT5A protein): 20.3 µM
